Assay [1] deals with Trypanosoma brucei S-adenosylmethionine decarboxylase, wild type (Trypanosoma brucei).
For assay [2], the target named is N-terminally truncated TbAdoMetDCΔ26 (Trypanosoma brucei).
Assay [3] concerns the target TbAdoMetDC H172A (Trypanosoma brucei).
The target in assay [4] is TbAdoMetDC-W137A/M146A (Trypanosoma brucei).

Chain of Trypanosoma brucei S-adenosylmethionine decarboxylase, wild type (Trypanosoma brucei) (P50244 1-85, tags left off, chain 1 of 2): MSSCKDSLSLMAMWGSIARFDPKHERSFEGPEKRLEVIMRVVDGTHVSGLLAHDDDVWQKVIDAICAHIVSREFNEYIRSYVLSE
Chain of Trypanosoma brucei S-adenosylmethionine decarboxylase, wild type (Trypanosoma brucei) (P50244 86-370 limits assumed, chain 2 of 2): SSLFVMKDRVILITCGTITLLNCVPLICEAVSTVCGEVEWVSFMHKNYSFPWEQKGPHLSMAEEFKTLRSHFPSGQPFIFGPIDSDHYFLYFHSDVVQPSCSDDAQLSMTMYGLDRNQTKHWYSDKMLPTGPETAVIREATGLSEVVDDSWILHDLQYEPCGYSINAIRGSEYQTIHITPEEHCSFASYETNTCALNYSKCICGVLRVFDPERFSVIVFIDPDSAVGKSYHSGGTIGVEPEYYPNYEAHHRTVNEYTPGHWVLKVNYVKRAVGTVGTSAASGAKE

On to prozyme-M148'A/Y152'A (natural protein), for which, in assay [1], the kcat/Km of AdoMet decarboxylation (14C-AdoMet, 37°C) by the TbAdoMetDC/prozyme heterodimer, with 4 mM putrescine came out at 660 s^−1M^−1 and the kcat/Km of AdoMet decarboxylation (14C-AdoMet, 37°C) by the TbAdoMetDC/prozyme heterodimer, without putrescine stood at 16 s^−1M^−1.
“Trypanosoma brucei prozyme, wild type (natural protein)”: the kcat/Km of AdoMet decarboxylation (14C-AdoMet, 37°C) by the TbAdoMetDC/prozyme heterodimer, with 4 mM putrescine came to 7.6 s^−1M^−1 in assay [2], 2100 s^−1M^−1 in assay [3], 87 s^−1M^−1 in assay [4] and 3200 s^−1M^−1 in assay [1]. For the same substance, the kcat/Km of AdoMet decarboxylation (14C-AdoMet, 37°C) by the TbAdoMetDC/prozyme heterodimer, without putrescine in assay [2] was found to be 2.2 s^−1M^−1; in assay [3], 93 s^−1M^−1; in assay [4], 5 s^−1M^−1; in assay [1], 2600 s^−1M^−1.

For the origin of these results see paper PMC5201418.
